# From patent US20220290113
# Test system: Nme2Cas9 (Neisseria meningitidis)
# Assay: cell_activity
# Details: PAM N4CC; HEK293T, TIDE
row,Sequence,activity
1,GCCUCCCUGCAGGGCUGCUCCC / GCCTCCCTGCAGGGCTGCTCCCCAGCCCAA / TTGGGCTGGGGAGCAGCCCTGCAGGGAGGC [TS6 sgRNA spacer ; TS6 LINC01588 target + PAM],20 % indels
2,GGAGUCGCCAGAGGCCGGUGGUGG / GGAGTCGCCAGAGGCCGGTGGTGGATTTCCTC / GAGGAAATCCACCACCGGCCTCTGGCGACTCC [TS16 sgRNA spacer ; TS16 LINC01588 target + PAM],28 % indels
3,GUGUGUCCCUCUCCCCACCCGUCC / GTGTGTCCCTCTCCCCACCCGTCCCTGTCCGG / CCGGACAGGGACGGGTGGGGAGAGGGACACAC [TS47 sgRNA spacer ; TS47 VEGFA target + PAM],23.1 % indels
